According to US20250076311A1 (Chugai, published 2025):
Where a chain is given by its changes, count along the chain named. Names may count otherwise.

T1: cynomolgus monkey FcγRIIIaS extracellular domain with C-terminal His-tag (cynomolgus monkey, UniProt Q8SPW2 21-206 at identity 1.00))
T1 construct: also called cyno FcγRIIIaS; FcgRIIIaS
T1 chain: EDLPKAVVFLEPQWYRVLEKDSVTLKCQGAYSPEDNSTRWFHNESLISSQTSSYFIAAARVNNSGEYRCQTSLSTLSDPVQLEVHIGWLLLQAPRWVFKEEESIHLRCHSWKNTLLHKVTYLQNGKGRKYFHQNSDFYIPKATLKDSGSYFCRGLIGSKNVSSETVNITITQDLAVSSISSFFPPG

T2: human FcγRIIaH extracellular domain, His-tagged (human, UniProt P12318 34-217)
T2 construct: also called human FcgRIIaH; FcγRIIa type H
T2 sequence: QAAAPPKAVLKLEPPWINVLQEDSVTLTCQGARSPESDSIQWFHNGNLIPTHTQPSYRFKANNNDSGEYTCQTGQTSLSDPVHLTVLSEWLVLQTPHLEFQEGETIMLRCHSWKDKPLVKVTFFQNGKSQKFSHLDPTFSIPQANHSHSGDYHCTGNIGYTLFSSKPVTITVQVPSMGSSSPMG

T3: human FcγRIIaR extracellular domain, His-tagged (human, UniProt P12318 34-217)
T3 construct: also called human FcgRIIaR; FcγRIIa type R
T3 chain: T2 sequence with H134R

T4: human FcγRIIb extracellular domain, His-tagged (human, UniProt P31994 43-217)
T4 construct: also called human FcgRIIb
T4 sequence: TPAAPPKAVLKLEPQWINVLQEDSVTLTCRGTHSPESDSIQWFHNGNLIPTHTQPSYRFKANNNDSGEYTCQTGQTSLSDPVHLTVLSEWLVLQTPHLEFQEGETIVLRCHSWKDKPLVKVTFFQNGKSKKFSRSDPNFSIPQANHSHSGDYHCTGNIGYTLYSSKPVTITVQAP

B1: M103205H795-MY142 (heavy chain) with M103202L889-SK1 (light chain) (antibody, human IgG1, kappa, name in EU numbering)
heavy: QVTLKESGPVLVKPTETLTLTCTVSGIDLSHDDISWVRQAPGKGLEWVGIISYAGSTYYASWAKGRLTISKDTSKNQVVLTMTNMDPVDTATYYCARGVPAYSHGGDLWGQGTLVTVSSASTKGPSVFPLAPSSKSTSGGTAALGCLVKDYFPEPVTVSWNSGALTSGVHTFPAVLQSSGLYSLSSVVTVPSSSLGTQTYICNVNHKPSNTKVDKKVEPKSCDKTHTCPPCPAPELLEGPSVFLFPPKPKDTLMISRTPEVTCVVVDVSEEDPEVKFNWYVDGVEVHNAKTKPREEQYNSTYRVVSVLTVLHQDWLNGKEYKCKVSNKALPAPIEKTISKAKGQPREPQVYTLPPSREEMTKNQVSLTCLVKGFYPSDIAVEWESNGQPENNYKTTPMVLDSDGSFFLYSKLTVDKSRWQQGNVFSCSVMHEALHNHYTQKSLSLSP
light: DIVMTQSPATLSLSPGERATLSCTSSQSVYHANWLSWFQQKPGQPPKLLIYWASTLAYGVPSRFSGSGSGTDFTLTISSLQPEDAATYYCAGGYGGGRYAFGQGTKVEIKRTVAAPSVFIFPPSDEQLKSGTASVVCLLNNFYPREAKVQWKVDNALQSGNSQESVTEQDSKDSTYSLSSTLTLSKADYEKHKVYACEVTHQGLSSPVTKSFNRGEC
notes: Substitutions introduced into M103205H795-SG1; positions in EU numbering
B2: M103205H795-MY293 (heavy chain) with M103202L889-SK1 (light chain) (antibody, human IgG1, kappa, name in EU numbering)
heavy: B1 heavy with E238G, G239Y, Q297L, A332K, M398K
light: B1 light
notes: as for B1
B3: M103205H795-MY310 (heavy chain) with M103202L889-SK1 (light chain) (antibody, human IgG1, kappa, name in EU numbering)
heavy: B1 heavy with E238T, K328T, A332K, M398P
light: B1 light
notes: as for B1
B4: M103205H795-MY311 (heavy chain) with M103202L889-SK1 (light chain) (antibody, human IgG1, kappa, name in EU numbering)
heavy: B1 heavy with E238T, Q297L, A332K, M398P
light: B1 light
notes: as for B1
B5: M103205H795-MY292 (heavy chain) with M103202L889-SK1 (light chain) (antibody, human IgG1, kappa, name in EU numbering)
heavy: B1 heavy with E238G, G239Y, E270D, Q297L, A332K
light: B1 light
notes: as for B1
B6: M103205H795-MY278 (heavy chain) with M103202L889-SK1 (light chain) (antibody, human IgG1, kappa, name in EU numbering)
heavy: B1 heavy with E238M, E270D, Q297L, A332K, M398P
light: B1 light
notes: as for B1
B7: M103205H795-MY279 (heavy chain) with M103202L889-SK1 (light chain) (antibody, human IgG1, kappa, name in EU numbering)
heavy: B1 heavy with E238H, E270D, Q297L, A332K, M398P
light: B1 light
notes: as for B1
B8: M103205H795-MY312 (heavy chain) with M103202L889-SK1 (light chain) (antibody, human IgG1, kappa, name in EU numbering)
heavy: B1 heavy with E238T, K328T, A332K
light: B1 light
notes: as for B1
B9: GpH7-B3 A330R / GpL16-k0 (antibody, human IgG1, kappa)
heavy: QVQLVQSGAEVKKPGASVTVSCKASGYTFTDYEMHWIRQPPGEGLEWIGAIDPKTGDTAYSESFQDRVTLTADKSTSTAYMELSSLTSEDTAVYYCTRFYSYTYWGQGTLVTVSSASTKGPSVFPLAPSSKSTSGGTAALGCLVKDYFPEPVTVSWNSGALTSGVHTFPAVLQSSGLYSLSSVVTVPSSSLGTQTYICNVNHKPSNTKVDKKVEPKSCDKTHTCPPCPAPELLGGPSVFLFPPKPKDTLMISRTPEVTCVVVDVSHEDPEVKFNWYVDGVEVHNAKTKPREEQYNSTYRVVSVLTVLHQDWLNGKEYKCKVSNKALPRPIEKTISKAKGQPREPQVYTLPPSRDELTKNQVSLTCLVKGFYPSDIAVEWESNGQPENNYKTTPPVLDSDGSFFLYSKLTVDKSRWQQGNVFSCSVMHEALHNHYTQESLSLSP
light: DIVMTQSPLSLPVTPGEPASISCQASESLVHSNRNTYLHWYLQKPGQSPQLLIYKVSNRFSGVPDRFSGSGSGTDFTLKISRVEAEDVGVYYCSQNTHVPPTFGQGTKVEIERTVAAPSVFIFPPSDEQLKSGTASVVCLLNNFYPREAKVQWKVDNALQSGNSQESVTEQDSKDSTYSLSSTLTLSKADYEKHKVYACEVTHQGLSSPVTKSFNRGEC
notes: also called B3 variant A330R
B10: GpH7-B3 H268E / GpL16-k0 (antibody, human IgG1, kappa)
heavy: not shown
light: B9 light
notes: also called B3 variant H268E
B11: GpH7-B3 L234W / GpL16-k0 (antibody, human IgG1, kappa)
heavy: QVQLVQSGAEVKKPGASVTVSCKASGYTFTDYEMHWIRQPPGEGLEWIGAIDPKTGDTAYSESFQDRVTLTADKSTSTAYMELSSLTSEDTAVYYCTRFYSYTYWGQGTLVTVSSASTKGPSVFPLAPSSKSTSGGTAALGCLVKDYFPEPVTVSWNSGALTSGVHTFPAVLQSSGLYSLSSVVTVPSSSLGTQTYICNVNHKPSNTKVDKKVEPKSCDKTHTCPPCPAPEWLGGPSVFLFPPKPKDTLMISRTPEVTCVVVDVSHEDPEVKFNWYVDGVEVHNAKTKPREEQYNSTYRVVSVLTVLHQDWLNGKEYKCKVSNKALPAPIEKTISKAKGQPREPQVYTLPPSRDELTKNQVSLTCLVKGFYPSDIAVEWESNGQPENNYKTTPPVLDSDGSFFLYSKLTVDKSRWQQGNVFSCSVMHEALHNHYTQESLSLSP
light: B9 light
notes: also called B3 variant L234W
B12: GpH7-B3 K326T / GpL16-k0 (antibody, human IgG1, kappa)
heavy: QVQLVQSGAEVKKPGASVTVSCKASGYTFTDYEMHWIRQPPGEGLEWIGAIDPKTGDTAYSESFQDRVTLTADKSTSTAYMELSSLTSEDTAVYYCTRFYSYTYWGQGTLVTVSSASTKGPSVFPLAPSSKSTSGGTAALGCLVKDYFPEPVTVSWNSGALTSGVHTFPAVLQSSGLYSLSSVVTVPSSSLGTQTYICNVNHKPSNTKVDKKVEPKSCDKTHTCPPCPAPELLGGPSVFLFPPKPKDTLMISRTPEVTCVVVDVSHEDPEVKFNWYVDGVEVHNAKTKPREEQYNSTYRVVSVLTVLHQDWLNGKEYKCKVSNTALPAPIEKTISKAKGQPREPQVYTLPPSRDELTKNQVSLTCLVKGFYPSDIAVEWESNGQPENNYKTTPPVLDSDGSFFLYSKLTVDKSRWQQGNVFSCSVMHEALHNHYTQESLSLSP
light: B9 light
notes: also called B3 variant K326T
B13: GpH7-B3 K334D / GpL16-k0 (antibody, human IgG1, kappa)
heavy: not shown
light: B9 light
notes: also called B3 variant K334D
B14: GpH7-B3 G236S / GpL16-k0 (antibody, human IgG1, kappa)
heavy: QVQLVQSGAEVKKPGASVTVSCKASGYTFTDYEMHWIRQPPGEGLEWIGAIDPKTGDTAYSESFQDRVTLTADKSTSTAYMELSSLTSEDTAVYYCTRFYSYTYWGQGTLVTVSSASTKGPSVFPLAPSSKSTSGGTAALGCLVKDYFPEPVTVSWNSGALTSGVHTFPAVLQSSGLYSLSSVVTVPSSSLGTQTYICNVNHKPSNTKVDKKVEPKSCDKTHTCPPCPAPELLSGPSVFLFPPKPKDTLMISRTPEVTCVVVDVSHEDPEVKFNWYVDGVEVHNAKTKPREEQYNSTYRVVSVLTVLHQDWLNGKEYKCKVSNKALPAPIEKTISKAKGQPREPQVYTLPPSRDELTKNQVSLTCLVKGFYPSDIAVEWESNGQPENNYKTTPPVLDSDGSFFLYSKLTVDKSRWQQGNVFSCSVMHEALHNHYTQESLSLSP
light: B9 light
notes: also called B3 variant G236S
B15: GpH7-B3 K334Y / GpL16-k0 (antibody, human IgG1, kappa)
heavy: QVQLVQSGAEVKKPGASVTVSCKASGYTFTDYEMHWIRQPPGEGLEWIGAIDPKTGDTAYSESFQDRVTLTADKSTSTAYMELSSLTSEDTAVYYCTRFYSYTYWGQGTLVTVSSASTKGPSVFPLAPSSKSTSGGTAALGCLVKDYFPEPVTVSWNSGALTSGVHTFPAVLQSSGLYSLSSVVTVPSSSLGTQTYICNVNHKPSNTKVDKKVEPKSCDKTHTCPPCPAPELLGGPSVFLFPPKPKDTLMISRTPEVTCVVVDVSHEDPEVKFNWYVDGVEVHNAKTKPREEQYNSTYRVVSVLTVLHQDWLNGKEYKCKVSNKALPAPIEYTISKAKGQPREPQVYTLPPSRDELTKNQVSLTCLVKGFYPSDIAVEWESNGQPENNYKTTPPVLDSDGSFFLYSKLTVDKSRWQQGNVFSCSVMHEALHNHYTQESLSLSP
light: B9 light
notes: also called B3 variant K334Y
B16: GpH7-B3 P271E / GpL16-k0 (antibody, human IgG1, kappa)
heavy: not shown
light: B9 light
notes: also called B3 variant P271E
B17: GpH7-B3 G236E / GpL16-k0 (antibody, human IgG1, kappa)
heavy: not shown
light: B9 light
notes: also called B3 variant G236E
B18: GpH7-B3 K334M / GpL16-k0 (antibody, human IgG1, kappa)
heavy: not shown
light: B9 light
notes: also called B3 variant K334M
B19: GpH7-B3 G236D / GpL16-k0 (antibody, human IgG1, kappa)
heavy: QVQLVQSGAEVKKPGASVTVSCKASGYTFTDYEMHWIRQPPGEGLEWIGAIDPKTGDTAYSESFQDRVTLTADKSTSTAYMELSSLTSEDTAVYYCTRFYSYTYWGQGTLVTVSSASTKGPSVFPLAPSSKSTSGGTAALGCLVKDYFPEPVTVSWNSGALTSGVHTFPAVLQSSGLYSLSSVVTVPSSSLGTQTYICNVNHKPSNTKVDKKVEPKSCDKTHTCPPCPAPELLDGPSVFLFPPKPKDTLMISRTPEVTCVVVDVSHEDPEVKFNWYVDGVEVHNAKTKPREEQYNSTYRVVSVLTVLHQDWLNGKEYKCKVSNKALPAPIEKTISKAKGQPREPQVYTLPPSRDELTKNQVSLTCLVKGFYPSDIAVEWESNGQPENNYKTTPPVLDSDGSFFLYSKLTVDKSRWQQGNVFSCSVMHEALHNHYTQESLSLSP
light: B9 light
notes: also called B3 variant G236D
B20: GpH7-B3 G236A / GpL16-k0 (antibody, human IgG1, kappa)
heavy: not shown
light: B9 light
notes: also called B3 variant G236A
B21: GpH7-B3 I332D / GpL16-k0 (antibody, human IgG1, kappa)
heavy: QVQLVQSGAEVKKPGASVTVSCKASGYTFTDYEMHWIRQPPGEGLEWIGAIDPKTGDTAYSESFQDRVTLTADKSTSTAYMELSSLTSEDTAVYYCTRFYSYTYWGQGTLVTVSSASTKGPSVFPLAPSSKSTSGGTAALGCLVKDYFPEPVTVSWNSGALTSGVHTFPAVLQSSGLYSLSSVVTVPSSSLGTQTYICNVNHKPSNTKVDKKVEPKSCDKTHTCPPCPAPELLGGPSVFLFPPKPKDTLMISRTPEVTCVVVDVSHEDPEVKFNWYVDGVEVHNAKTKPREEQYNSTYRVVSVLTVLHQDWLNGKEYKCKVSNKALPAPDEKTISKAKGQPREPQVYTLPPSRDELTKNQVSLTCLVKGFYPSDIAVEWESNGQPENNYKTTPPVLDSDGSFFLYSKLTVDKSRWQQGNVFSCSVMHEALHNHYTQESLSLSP
light: B9 light
notes: also called B3 variant I332D
B22: GpH7-B3 H268D / GpL16-k0 (antibody, human IgG1, kappa)
heavy: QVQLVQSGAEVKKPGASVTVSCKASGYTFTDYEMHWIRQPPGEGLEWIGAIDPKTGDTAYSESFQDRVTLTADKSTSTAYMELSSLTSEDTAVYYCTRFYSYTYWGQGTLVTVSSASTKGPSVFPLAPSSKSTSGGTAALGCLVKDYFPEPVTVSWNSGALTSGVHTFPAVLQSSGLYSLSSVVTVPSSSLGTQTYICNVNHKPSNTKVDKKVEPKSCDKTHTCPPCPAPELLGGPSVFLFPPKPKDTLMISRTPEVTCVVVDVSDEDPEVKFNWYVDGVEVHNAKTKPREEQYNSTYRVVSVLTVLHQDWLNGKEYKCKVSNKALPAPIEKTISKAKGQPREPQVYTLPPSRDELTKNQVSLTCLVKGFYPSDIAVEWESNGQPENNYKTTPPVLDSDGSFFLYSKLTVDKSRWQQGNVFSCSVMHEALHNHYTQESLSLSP
light: B9 light
notes: also called B3 variant H268D
B23: GpH7-B3 K334V / GpL16-k0 (antibody, human IgG1, kappa)
heavy: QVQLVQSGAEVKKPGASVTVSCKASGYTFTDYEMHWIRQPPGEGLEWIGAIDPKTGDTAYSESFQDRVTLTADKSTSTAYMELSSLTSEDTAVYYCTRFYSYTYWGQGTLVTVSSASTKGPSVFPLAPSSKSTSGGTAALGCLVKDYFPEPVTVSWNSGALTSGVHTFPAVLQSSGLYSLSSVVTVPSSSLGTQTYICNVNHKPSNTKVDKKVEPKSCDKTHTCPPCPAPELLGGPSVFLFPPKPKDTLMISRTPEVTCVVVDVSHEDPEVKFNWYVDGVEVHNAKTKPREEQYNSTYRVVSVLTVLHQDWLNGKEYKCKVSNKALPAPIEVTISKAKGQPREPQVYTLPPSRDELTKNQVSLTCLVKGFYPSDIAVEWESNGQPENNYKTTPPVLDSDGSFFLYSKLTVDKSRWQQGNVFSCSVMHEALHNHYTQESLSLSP
light: B9 light
notes: also called B3 variant K334V
B24: GpH7-B3 P271D / GpL16-k0 (antibody, human IgG1, kappa)
heavy: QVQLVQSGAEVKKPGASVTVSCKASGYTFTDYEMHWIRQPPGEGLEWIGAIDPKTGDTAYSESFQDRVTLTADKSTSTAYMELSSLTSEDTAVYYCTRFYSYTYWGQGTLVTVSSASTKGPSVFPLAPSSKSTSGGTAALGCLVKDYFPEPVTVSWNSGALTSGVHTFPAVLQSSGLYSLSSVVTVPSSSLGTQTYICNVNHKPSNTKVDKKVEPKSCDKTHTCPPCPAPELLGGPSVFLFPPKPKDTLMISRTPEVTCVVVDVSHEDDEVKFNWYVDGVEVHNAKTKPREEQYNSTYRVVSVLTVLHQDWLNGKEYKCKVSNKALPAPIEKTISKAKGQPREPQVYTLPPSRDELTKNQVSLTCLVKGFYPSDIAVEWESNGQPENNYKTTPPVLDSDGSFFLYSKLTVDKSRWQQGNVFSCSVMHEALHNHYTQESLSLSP
light: B9 light
notes: also called B3 variant P271D

Target: T1, cynomolgus monkey FcγRIIIaS …
Assay: SPR; KD of SG1 / KD of variant
Procedure: The kinetic analysis of interactions between these antibodies and FcγR was carried out using BIACORE® T200 or BIACORE® 4000 (GE Healthcare). HBS-EP+ (GE Healthcare) was used as the running buffer, and the measurement temperature was set to 25° C. […] After the measurement, the antibody captured on the chip was washed off by allowing reaction with 10 mM glycine-HCl, pH1.5 and 25 mM NaOH so that the chip was regenerated and used repeatedly. The sensorgrams obtained as measurement results were analyzed by the 1:1 Langmuir binding model using the BIACORE® Evaluation Software to calculate the binding rate constant ka (L/mol/s) and dissociation rate constant kd (1/s), and the dissociation constant KD (mol/L) was calculated from these values. […] Regarding such interactions, KD values were calculated using the following 1:1 binding model described in BIACORE® T100 Software Handbook BR1006-48 Edition AE.

Binder	KD fold (SG1 = 1) [fold]
B1	2.57
B2	0.09
B3	0.2
B4	0.15
B5	0.09
B6	0.49
B7	0.15
B8	0.55

What follows are binders tested against T2, human FcγRIIaH extracellular domain, … (assay: SPR (Biacore), 25C, FcgR bound per antibody captured).

Binder	Binding to human FcgRs (parent B3 = 100)
B9	116
B10	169
B11	64
B12	138
B13	97
B14	147
B15	157
B16	90
B17	142
B18	151
B19	109
B20	165
B21	129
B22	173
B23	172

Target: T3, human FcγRIIaR extracellular domain, …
Assay: as above

Binder	Binding to human FcgRs (parent B3 = 100)
B9	123
B10	132
B11	63
B12	127
B13	72
B14	161
B15	131
B24	55
B16	51
B17	131
B18	127
B19	91
B20	168
B21	139
B22	142
B23	132

Each binder was assayed against T4, human FcγRIIb extracellular domain, … in the same assay as above.

Binder	Binding to human FcgRs (parent B3 = 100)
B10	283
B11	90
B12	195
B13	108
B14	87
B15	160
B24	110
B17	117
B18	148
B19	212
B20	94
B21	198
B22	307
B23	184

What follows are binders tested against T5, human FcγRIIIaV extracellular domain, His-tagged (human, UniProt P08637 17-208) in the same assay as above.
T5 construct: also called human FcgRIIIaV
T5 sequence (P08637 17-208 F176V): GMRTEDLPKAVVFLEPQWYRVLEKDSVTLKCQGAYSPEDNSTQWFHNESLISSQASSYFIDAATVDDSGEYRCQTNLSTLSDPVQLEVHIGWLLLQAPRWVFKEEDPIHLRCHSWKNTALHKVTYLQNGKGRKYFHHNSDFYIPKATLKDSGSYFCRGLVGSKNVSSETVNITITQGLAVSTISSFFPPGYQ

Binder	Binding to human FcgRs (parent B3 = 100)
B9	73
B10	205
B11	36
B12	164
B13	155
B14	33
B15	188
B24	85
B16	87
B17	33
B18	183
B19	25
B20	65
B21	235
B22	220
B23	176
